Data reported in the nanobody polyreactivity screen of Harvey et al. (2022).

assay: yeast display, Sf9 membrane polyspecificity reagent, FACS + sequencing; frameworks hold sequencing errors
Summary of the method: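 Nanobodies came from a synthetic yeast display library in Saccharomyces cerevisiae BJ5465, induced with galactose for 36–48 hours and stained for 1 hour at 4 °C with 10% biotinylated, detergent-solubilized Sf9 membrane reagent. Cells were enriched on streptavidin microbeads and then FACS-sorted, with low and high (top ~1%) gates set on anti-HA fluorescence for expression and streptavidin fluorescence for reagent binding. Each polyreactivity label reflects the gate a clone came from. Genes were amplified by colony PCR, sequenced by MiSeq 2 × 250 and filtered by CDR length.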

Q: With “QVQLVESGGGLVEAGGSLRLSCAASGAIFQYAMGWYRQAPGKERELVAGITYRGSTYYADSVKGRFTISRDNAKNTVYLQMNSMKPEDTAVYDCAALQRGFGYRPRRWSYDYWGQGTQVTVSS” as the sequence, how does the “polyreactivity (PSR sort gate)” value read?
A: high polyreactivity

Q: Which “polyreactivity (PSR sort gate)” value does the source give for “QVQLVESGGGLVEAGGSLRLSCAASGNIFVNYAMEWYRQAPGKERELVAAISWSGGSTYYADSVKGRFTISRDNAKNTVYLQINRLKAEDTAVYYCAADYTGHLYYYWVQGTQVTVSS” here?
A: low polyreactivity

Q: Which “polyreactivity (PSR sort gate)” value does the source give for “QVQLVESGGGLVEAGGSLRLSCAASGRTFANNAMGWYRQAPGKERELVARISNSGSTNYADSVKGRFTISRDNANNTVYLQMNSLNPEDTAVYYCAARIVRLYSRYDYWGQGTQVTVSS” here?
A: low polyreactivity

Q: For “QVQLVESGGGLVEAGGSLRLSCAASGSIFAVNTMGWYRKAPGKERELVASITRGGSTNYADSVKGRFAISRDNAKKSVYLQMNSQKPEDSAVYYCAARPTWWYDYWGQGNQVTVSS”, which “polyreactivity (PSR sort gate)” value is on record?
A: high polyreactivity

Q: With “QVQLVESGGGLVEAGGSLRLSCAASGSIFGNYALGWYRQAPGKERELVAAITSSNGNTYNADSVKGRFTISRDTAKNTVYFQMNSLKPEDTAVYYCATDSWSPYLQTIFYYWGHGTQVTVSS” as the sequence, how does the “polyreactivity (PSR sort gate)” value read?
A: low polyreactivity

Q: With “QVQLVESGGGLVEAGGSLRLSCAASGSIFSYNAMGWYRQAPGKERELVAAITDGGDRTYYADSVKGRFTISRDNAKNTVYLLMNSLIPEATAVYYCAAELYSYREDYGAHFAYEYWGQGTQVTVSS” as the sequence, how does the “polyreactivity (PSR sort gate)” value read?
A: low polyreactivity

Q: With “QVQLVESGGGLVEAGGSLRLSCAASGSILYYNAMGWYRQAPGKERELVAAISTRGGSTYYADSVKGRFTSSRDNAKKTVYLQMNSLKPEDTAVYYCAADHNVIWGYYYWGQGTQVTVSS” as the sequence, how does the “polyreactivity (PSR sort gate)” value read?
A: high polyreactivity

Q: For “QVQLVESGGGLVEAGGSLRLSCAASGSTFGSNAMGWYRQGPGKARELVARISKRGGSTYYADSVKGRFTISRDKAKNTVSIQINSLKPDDTAVYYCNVRSWWGYTGPYDYWRQGTQVTVSS”, which “polyreactivity (PSR sort gate)” value is on record?
A: high polyreactivity

Q: Which “polyreactivity (PSR sort gate)” value does the source give for “QVQLVESGGGLVEAGGSLRLSCAASGTFVYNAMGWYIQAPGKERELVAAISWSGSSTYADSVKGRFTISRDNAKNTVYLQMNSLKPEDTAVYYCAADGYGYNTYQQYYKKSSYWGQGTQVSVSS” here?
A: low polyreactivity

Q: With “QVQLVESGGGLVEGGGSLRLSCAASGFTFGRYTMGWYRQATGKERELVAAISWSGGSTYYADSVKGRFTISRDNAKNTVYLQLNSLKQEDTAVYNCATRLKSVSGGYNYWGQGTQVTVSS” as the sequence, how does the “polyreactivity (PSR sort gate)” value read?
A: high polyreactivity

Q: For “QVQLVESGGGLVHAGCSLRLSCAASGFFFDYNAMGWYRQAPGKERELVAAISISGGGTYYADSVKGRFTISRDNAKNTVYLQKNSLKPEDTAVYYCAAAGIGGGGWGQGTQVTVSS”, which “polyreactivity (PSR sort gate)” value is on record?
A: low polyreactivity

Q: For “QVQLVESGGGLVHAGGCLRLSCAASGRNFYYYTMGWSRQEPGKERELVASISRSGDRTYYADSVKGRFTISRDYAKNTVYLQMNSLKPEDTAVYYCNAQKYPRYSRTSGRNYFFWGQGTQVTVSS”, which “polyreactivity (PSR sort gate)” value is on record?
A: high polyreactivity

Q: With “QVQLVESGGGLVHAGGILRLSCAASGRTFPYYAMGWYRQAPGKERELVAAISSSGGGTYYADSVKGRFTISRDTAKNTVYLQMNSLKPEDTAVYYCNAVSYYQDSFYYWGQGTQVTVSS” as the sequence, how does the “polyreactivity (PSR sort gate)” value read?
A: high polyreactivity

Q: Which “polyreactivity (PSR sort gate)” value does the source give for “QVQLVESGGGLVHAGGRLRLSCPPSGRIFSYYTMGWYRQAPGKERELVAAISRGVSTNYADSVKGRFTISRDNAKNTVYLQMNSLKPEYSAVYYCNARHTWYYKYLHEYWGQGTQVTVSS” here?
A: high polyreactivity

Q: With “QVQLVESGGGLVHAGGSHRLSCAASGRTFPGYPMGWYIPAPGTERELVAGISYRGGSTYFADSVKGRFTISRDNAKNTVYLQMNSLKPEDTAVYFCARDYSRHKGDYWGQGTQGTVSS” as the sequence, how does the “polyreactivity (PSR sort gate)” value read?
A: low polyreactivity

Q: For “QVQLVESGGGLVHAGGSLLLSCAASGSTLRPNAMGWYRKAPGKERELVDAISSGGSTYYADSVKGRFTISRDNAKYSVYLQMNSLKPEDTAVYSCAAASERSGYYYWGQGTQVTVSS”, which “polyreactivity (PSR sort gate)” value is on record?
A: high polyreactivity

Q: With “QVQLVESGGGLVHAGGSLRLICAGSGFTFRGYAMGWYRQAPGKEMELVADITSGGSTYYADSVKGRFTISRDNAKNTVYLQMNSLKPEDTAVYYCAPRQRSRSRYDYWGQGTQVTVSS” as the sequence, how does the “polyreactivity (PSR sort gate)” value read?
A: high polyreactivity

Q: Which “polyreactivity (PSR sort gate)” value does the source give for “QVQLVESGGGLVHAGGSLRLSCAAPGRTSRYYVMGWYRQAPGKERELVAAISKNGGSTYYADSVKGRFTISRDNAKNTVYLQMNSLKPEDTAVYFCAASYYPFSYGHGYDYWGQGTQVTVSS” here?
A: high polyreactivity

Q: With “QVQLVESGGGLVHAGGSLRLSCAASGFIFYYNAMGWYRHAPGKERELVAGISRSAGSTYYADSVKGRFTISRDNAKNSVYLQMNSLKPEDTAVDYCAARYLSYITGTSYYWGQVTQVTVSS” as the sequence, how does the “polyreactivity (PSR sort gate)” value read?
A: low polyreactivity

Q: Which “polyreactivity (PSR sort gate)” value does the source give for “QVQLVESGGGLVHAGGSLRLSCAASGFNFIVYAMGWYRQAPGKERELVASITYSGGGTYYADSVKGRFTISRDNAKNTVYLQMNSLIPEDTAVYYCNADVSWSYSVYREYGMDYWGQGTQVTVSS” here?
A: low polyreactivity

Q: With “QVQLVESGGGLVHAGGSLRLSCAASGFTFAYNAMGWYRQAPGKERELVAAIRRRGGITYYADSVKGRFTISRDNAKNTVYLQMNSLKPEDTAVYYCNAVRSYPAGYDSWGQGTQVTVSS” as the sequence, how does the “polyreactivity (PSR sort gate)” value read?
A: low polyreactivity

Q: With “QVQLVESGGGLVHAGGSLRLSCAASGFTFDSNDKGWYRQAPGKERELVAAISTGGSTYYADSVKGRFTISRDNAKNTVYLQMNRLKPEDTAVYYCARDPPYPDTWYGYWGQGSQVTVSS” as the sequence, how does the “polyreactivity (PSR sort gate)” value read?
A: low polyreactivity

Q: For “QVQLVESGGGLVHAGGSLRLSCAASGFTFGGYAKGWYIQAPGKERELVAAISQSGGRTYYADSVKGRFTISRDHAKNTFYLQMNSLKPEDTAVYYCAKPSTTYYQRGDYWGQGTQVTVSS”, which “polyreactivity (PSR sort gate)” value is on record?
A: high polyreactivity

Q: Which “polyreactivity (PSR sort gate)” value does the source give for “QVQLVESGGGLVHAGGSLRLSCAASGFTFGGYALGWYRQAPGKERELVAAITGSGGNTFYADSVKGRFTISRDNAKNTVYLQMNSLKPEDTAVYYCAKTWYPWSRYGYYRRYDSWGQGTQVTVSS” here?
A: low polyreactivity

Q: Which “polyreactivity (PSR sort gate)” value does the source give for “QVQLVESGGGLVHAGGSLRLSCAASGFTFGGYAMGWYRQAPGIEREFVAAISSSGGRTYYADSVKRRFTISRDNAKNTVYLPMNSLKPEDTAVYDCNVGQYLRARRPVDSWGQGTQVSVSS” here?
A: high polyreactivity

Q: Which “polyreactivity (PSR sort gate)” value does the source give for “QVQLVESGGGLVHAGGSLRLSCAASGGTFTYYTMGWYRKAPGKERELVARISKNGGRTYYADSVKGRFTLSRDNAKNTLYLKMISLKPEDTAVYYCNAAGRPYDFSGGRTMEYWGQGTQVTVST” here?
A: high polyreactivity

Q: For “QVQLVESGGGLVHAGGSLRLSCAASGIIFDDYAMGWNRQAPGKERELVAAIRSGVSTNYADSVKGRFTISRDNAKNTVYLQMNSLKPEDTAVYYCAARNTAPYFTEYDYWGQGTQVTVSS”, which “polyreactivity (PSR sort gate)” value is on record?
A: low polyreactivity

Q: With “QVQLVESGGGLVHAGGSLRLSCAASGITYSRYAMGWYRQAPGKERELVAAITWDGGRTYYADTVKGRFTISRDIAKNTVYLQMNSVKPEDTAVYYCAAGSAWWYYWGQGTQVTVSS” as the sequence, how does the “polyreactivity (PSR sort gate)” value read?
A: high polyreactivity

Q: With “QVQLVESGGGLVHAGGSLRLSCAASGLIFKTYTMGWYRQAPGKEREFVAAITTSGGSTYYADSVKGRFTISRDNAKNTDYVEMNRLKPEETAVYFCAAEGYTDATQSLFYYWGQGTQVTVSS” as the sequence, how does the “polyreactivity (PSR sort gate)” value read?
A: high polyreactivity

Q: Which “polyreactivity (PSR sort gate)” value does the source give for “QVQLVESGGGLVHAGGSLRLSCAASGLTFDWYTMGWYRQAPGKERELVATINSGGSTDYADSVKGRFTISRDNAKNTVYLQMNSLKPEDTAVYYCNAEYGYSGVGDDYWGQGTQVTVSS” here?
A: low polyreactivity

Q: Which “polyreactivity (PSR sort gate)” value does the source give for “QVQLVESGGGLVHAGGSLRLSCAASGNIFKRNAMGWYRQAHGKERELVAAISGSGVRTYYADSVKGRFTISRDNAKNSVYLQMNSLKPEDTAVYYCNAEIRYSAWNWLSYEYWGQGTQVTVSS” here?
A: high polyreactivity

Q: With “QVQLVESGGGLVHAGGSLRLSCAASGNTFIRYAIGWYRQARGTQRELVASITKRCGSTYYADSVKGRFTISRDNAKNTVYLQMNCLKPEDTAVYYCDRGPSGTPIGNTPYGDNRYNSWGEGTQVTVSS” as the sequence, how does the “polyreactivity (PSR sort gate)” value read?
A: low polyreactivity
